For data set [1], the target named is rPrP23-231 (full-length recombinant prion protein) (murine, UniProt P04925 23-231). The data set is described as follows: ITC. (ITC needs no label: the signal is the heat of the interaction.)
Data set [2] deals with rPrP90-231 (globular domain of recombinant prion protein) (murine, UniProt P04925 90-231). Kind of data set: ITC.

Broadly, the Kd is the equilibrium constant for the complex coming apart. As to CCGCGTACAATCGAGCTCGGGTGTC (structured_DNA) [A1], the Kd was found to be 838 nM in data set [1] and 232 nM in data set [2].
On to TGGTGGTAACAGACCCTTCCACGGC (ssDNA) [A2], for which the results for the Kd in data set [1] and in data set [2] were 1470 nM and 1930 nM, respectively.

The record behind these values is doi:10.1101/659037.
